Drawing on publication PMC10068178, this text covers diagnostic α-syn SAA on PD CSF, increase of the time to reach the fluorescence threshold of 5000 a.u. (TTT) against neat samples, HDL for one substance.

The test has as its target α-synuclein aggregates (small fibrils, oligomeric/protofibrillary species) formed in the aggregation reaction (UniProt P37840).

Substance “human serum high-density lipoprotein (HDL) (complex)” registered a diagnostic α-syn SAA on PD CSF, increase of the time to reach the fluorescence threshold of 5000 a.u. (TTT) against neat samples, HDL at 2X (~ 24%) and 5X the CSF physiological concentration of 55%.
